In the MegaScale stability set (Tsuboyama et al. 2023):

B1: EHEE_rd2_0191 (parent)
chain: TTEYTFTDDEEARRAIEELKKRGLTFRYEKHGTTWRVRVD

Variants of: B1
Assay: folding stability dG (cDNA display proteolysis); higher = more stable
Conditions: PBS, room temperature

Folding stability dG [kcal/mol] of substitutions, site by site:
G32: T -0.068 | V -0.186 | F 0.367 | K 0.641 | I -0.154 | L 0.796 | M 0.592 | D 1.34 | E 1.35 | Y 0.194 | R 0.119 | N 1.1 | H 0.696 | A 0.777 | S 0.389
R38: A 1.89 | N 1.71 | D 1.11 | Y 3.62 | M 2.81 | K 2.06 | E 2.35 | I 3.6 | W 4.04 | S 2.49 | Q 2.47 | L 2.95 | V 3.23 | H 2.28 | F 3.61 | T 2.95 | G 0.594
E29: F 2.35 | H 1.83 | Q 1.75 | I 2.13 | W 3.04 | N 1.38 | R 1.77 | V 2.07 | D 1.7 | A 1.75 | S 2.12 | L 1.71 | C 2.56 | M 1.94 | G 1.04 | K 1.72 | Y 2.44 | T 2.21
T25: V 2.08 | A 1.95 | E 1.58 | Y 2.07 | Q 2.01 | P 1.84 | M 1.95 | K 2.25 | L 1.97 | W 2.28 | N 2.12 | I 2.14 | H 2.25 | S 2.29 | G 1.49 | D 1.46 | F 2.15 | R 2.27
D40: M 2.68 | E 2.31 | R 1.95 | G 2.1 | Q 2.19 | L 2.78 | S 2.17 | W 3.19 | I 2.83 | V 2.54 | K 1.9 | Y 3.29 | C 3.04 | H 2.19 | A 2.04 | P 1.86 | T 2.38 | F 3.35 | N 2.04
T33: V 1.71 | D 2.54 | K 2.01 | I 1.84 | L 1.91 | E 2.14 | Q 2.03 | M 1.9 | H 2.01 | N 2.55 | S 2.19 | P 1.79 | G 2.46 | A 1.93 | Y 1.7 | W 1.13 | R 1.8 | F 1.9
L24: H 1.46 | R 1.42 | E 1.1 | G 0.321 | W 1.65 | D 0.718 | Q 1.27 | K 1.55 | N 0.838 | V 2.14 | S 1.18 | I 2.16 | M 1.91 | F 2.08 | T 1.12 | A 2 | Y 2.15
R27: V 2.51 | H 2.39 | I 2.29 | W 2.77 | F 2.29 | Q 2.25 | S 2.73 | E 2.02 | K 2 | Y 2.42 | G 1.37 | A 2.1 | N 1.91 | D 1.62 | M 2.03 | T 3.02 | L 1.74
R36: S 1.67 | W 2.7 | C 2.39 | A 1.19 | G -0.707 | N 1.43 | L 2.71 | V 3.08 | Y 3.28 | H 2.44 | K 2.35 | F 3.02 | T 2.57 | I 3.33 | D 0.362 | M 2.08 | E 1.34 | Q 1.54
F26: P 1.41 | M 0.795 | V 2.73 | L 1.61 | I 2.04 | H 0.04 | T 0.447 | W 0.681 | A 0.99 | Y 1.73
